Paper PMC10198558, “CryoEM structure of a post-assembly MS-ring reveals plasticity in stoichiometry and conformation” (PLOS ONE, 2023)
Several values for one entry are separate records, joined by “and”; a condition that tells them apart may be missing. Equal values may be shown once.

Molecular target: the molecule itself
Experiment: cryo-EM structure; purified MS-rings (0.5 mg/ml) in 50 mM Tris-HCl pH 7.5, 100 mM NaCl, 0.1% LDAO on graphene oxide grids, no crosslinking; subunits counted in en-face 2D class averages without rotational symmetry averaging; 3D maps with C32, C33, C34 (RBM3), C21, C22 (RBM2 inner) and C11 symmetry

B1: FliF (subunit of the flagellar MS-ring) (natural protein)
chain: MSATASTATQPKPLEWLNRLRANPRIPLIVAGSAAVAIVVAMVLWAKTPDYRTLFSNLSDQDGGAIVAQLTQMNIPYRFANGSGAIEVPADKVHELRLRLAQQGLPKGGAVGFELLDQEKFGISQFSEQVNYQRALEGELARTIETLGPVKSARVHLAMPKPSLFVREQKSPSASVTVTLEPGRALDEGQISAVVHLVSSAVAGLPPGNVTLVDQSGHLLTQSNTSGRDLNDAQLKFANDVESRIQRRIEAILSPIVGNGNVHAQVTAQLDFANKEQTEEHYSPNGDASKATLRSRQLNISEQVGAGYPGGVPGALSNQPAPPNEAPIATPPTNQQNAQNTPQTSTSTNSNSAGPRSTQRNETSNYEVDRTIRHTKMNVGDIERLSVAVVVNYKTLADGKPLPLTADQMKQIEDLTREAMGFSDKRGDTLNVVNSPFSAVDNTGGELPFWQQQSFIDQLLAAGRWLLVLVVAWILWRKAVRPQLTRRVEEAKAAQEQAQVRQETEEAVEVRLSKDEQLQQRRANQRLGAEVMSQRIREMSDNDPRVVALVIRQWMSNDHE
notes: FliF, flagellar M-ring protein, Salmonella enterica serovar typhimurium; Homo-oligomeric ring; 33 subunits is the most common stoichiometry (~80% of particles), 34 ~15%, 32 ~5%; No tag is mentioned; The built models cover only residues 228-438 (RBM3 and beta-collar, PDB 8FTF) and Gln-125 to Gly-227 (RBM2 inner, PDB 8FTE); also called post-assembly MS-ring; FliF protomer; source: E. coli …
stoichiometry N: 32 subunits and 33 subunits and 34 subunits
